Holding throughout (experiment): 14-3-3 overlay (far-western) assay
Experiment [1] has as its target T1, GFP tagged, full length LRRK2 Ser910Ala (human, UniProt Q5S007 1-2527).
T1 construct: mature; also called S910A; not shown: GFP tag, amino-terminal

For experiment [2], the target named is T2, GFP tagged, full length LRRK2 Ser935Ala (human, UniProt Q5S007 1-2527).
T2 construct: mature; also called S935A; not shown: GFP tag, amino-terminal

For experiment [3], the target named is T3, GFP tagged, full length LRRK2 Ser955Ala (human, UniProt Q5S007 1-2527).
T3 construct: mature; also called S955A; GFP-LRRK2-S955A; not shown: GFP tag, amino-terminal
T3 sequence (Q5S007 whole entry S955A): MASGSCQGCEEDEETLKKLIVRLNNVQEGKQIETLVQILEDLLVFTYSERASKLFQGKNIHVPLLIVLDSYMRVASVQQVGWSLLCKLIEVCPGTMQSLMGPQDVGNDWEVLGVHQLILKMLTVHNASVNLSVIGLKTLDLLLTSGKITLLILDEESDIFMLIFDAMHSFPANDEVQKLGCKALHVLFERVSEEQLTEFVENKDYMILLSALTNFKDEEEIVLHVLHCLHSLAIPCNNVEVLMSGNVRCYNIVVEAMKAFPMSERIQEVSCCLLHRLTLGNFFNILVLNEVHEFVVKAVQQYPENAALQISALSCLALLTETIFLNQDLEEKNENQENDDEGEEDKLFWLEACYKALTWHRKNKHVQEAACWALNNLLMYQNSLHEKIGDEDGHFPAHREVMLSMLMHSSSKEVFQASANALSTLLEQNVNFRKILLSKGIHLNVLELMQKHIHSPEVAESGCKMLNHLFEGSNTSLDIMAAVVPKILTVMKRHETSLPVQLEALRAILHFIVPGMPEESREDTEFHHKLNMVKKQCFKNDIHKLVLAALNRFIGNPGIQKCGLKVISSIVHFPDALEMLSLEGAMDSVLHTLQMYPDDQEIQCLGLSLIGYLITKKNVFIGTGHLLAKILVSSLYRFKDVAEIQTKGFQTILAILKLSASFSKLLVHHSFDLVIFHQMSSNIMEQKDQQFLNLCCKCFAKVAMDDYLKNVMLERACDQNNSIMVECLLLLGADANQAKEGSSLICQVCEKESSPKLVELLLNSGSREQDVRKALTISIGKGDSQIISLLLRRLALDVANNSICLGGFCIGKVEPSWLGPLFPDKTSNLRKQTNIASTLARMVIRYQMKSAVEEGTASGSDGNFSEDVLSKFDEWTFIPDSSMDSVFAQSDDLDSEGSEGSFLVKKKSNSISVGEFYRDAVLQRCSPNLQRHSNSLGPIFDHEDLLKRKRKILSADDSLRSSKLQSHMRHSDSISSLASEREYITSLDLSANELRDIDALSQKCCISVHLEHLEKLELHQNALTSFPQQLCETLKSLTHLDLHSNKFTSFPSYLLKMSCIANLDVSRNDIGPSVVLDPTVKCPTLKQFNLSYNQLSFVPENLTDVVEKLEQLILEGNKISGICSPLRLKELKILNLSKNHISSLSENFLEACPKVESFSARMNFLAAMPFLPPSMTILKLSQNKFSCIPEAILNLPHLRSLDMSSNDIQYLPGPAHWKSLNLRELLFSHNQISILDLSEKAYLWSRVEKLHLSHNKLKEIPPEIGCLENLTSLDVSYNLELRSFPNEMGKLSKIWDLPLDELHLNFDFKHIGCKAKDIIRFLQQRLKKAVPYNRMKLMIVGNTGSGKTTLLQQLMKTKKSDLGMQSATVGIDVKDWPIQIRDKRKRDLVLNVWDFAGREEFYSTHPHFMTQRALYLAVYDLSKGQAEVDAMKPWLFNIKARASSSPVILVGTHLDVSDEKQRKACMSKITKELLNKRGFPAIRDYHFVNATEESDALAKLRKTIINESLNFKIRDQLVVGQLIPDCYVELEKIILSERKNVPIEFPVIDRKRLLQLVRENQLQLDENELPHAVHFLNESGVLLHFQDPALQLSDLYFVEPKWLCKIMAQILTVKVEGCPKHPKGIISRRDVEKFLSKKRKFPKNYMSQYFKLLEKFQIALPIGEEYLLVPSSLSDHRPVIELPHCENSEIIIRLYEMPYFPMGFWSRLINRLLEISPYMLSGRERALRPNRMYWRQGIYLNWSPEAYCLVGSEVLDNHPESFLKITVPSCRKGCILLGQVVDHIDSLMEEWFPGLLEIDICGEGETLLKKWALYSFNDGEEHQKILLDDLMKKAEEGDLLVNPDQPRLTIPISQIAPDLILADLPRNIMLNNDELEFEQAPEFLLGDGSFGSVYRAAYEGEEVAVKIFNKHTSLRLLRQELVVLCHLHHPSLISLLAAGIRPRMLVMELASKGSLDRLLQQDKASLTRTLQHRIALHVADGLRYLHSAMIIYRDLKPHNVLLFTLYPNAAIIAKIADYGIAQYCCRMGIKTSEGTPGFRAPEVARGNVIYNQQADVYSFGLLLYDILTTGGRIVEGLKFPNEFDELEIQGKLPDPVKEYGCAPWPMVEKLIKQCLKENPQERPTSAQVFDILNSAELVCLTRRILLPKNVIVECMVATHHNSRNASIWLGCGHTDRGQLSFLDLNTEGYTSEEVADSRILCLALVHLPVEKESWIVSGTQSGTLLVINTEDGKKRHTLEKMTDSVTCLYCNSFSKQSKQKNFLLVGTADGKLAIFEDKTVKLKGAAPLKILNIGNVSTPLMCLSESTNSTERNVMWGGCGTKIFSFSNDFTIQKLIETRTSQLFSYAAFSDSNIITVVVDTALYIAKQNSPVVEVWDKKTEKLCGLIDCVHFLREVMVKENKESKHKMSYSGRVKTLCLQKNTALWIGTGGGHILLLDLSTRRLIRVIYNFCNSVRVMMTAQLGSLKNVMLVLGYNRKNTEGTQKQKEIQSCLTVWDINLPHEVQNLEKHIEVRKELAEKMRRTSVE

Experiment [4] concerns the target T4, GFP tagged, full length LRRK2 Ser973Ala (human, UniProt Q5S007 1-2527).
T4 construct: mature; also called S973A; GFP-LRRK2-S973A; not shown: GFP tag, amino-terminal

Experiment [5] addresses T5, GFP tagged, full length LRRK2 I2020T (human, UniProt Q5S007 1-2527).
T5 construct: mature; also called 12020T (so in the source); not shown: GFP tag, amino-terminal

Experiment [6] concerns the target T6, GFP tagged, full length LRRK2 from cells treated with 1 µM LRRK2-IN1 for 90 minutes (human, UniProt Q5S007 1-2527, Serines 910, 935, 955 and 973 dephosphorylated by LRRK2-IN1 treatment of the cells).
T6 construct: mature; Same polypeptide as m10; It differs only in phosphorylation state; also called LRRK2-IN1 treated LRRK2; not shown: GFP tag, amino-terminal

T1 sequence (Q5S007 whole entry S910A): as the sequence (Q5S007 whole entry S955A) above, with S910A, A955S counted along it
T5 sequence (Q5S007 whole entry I2020T): as the sequence (Q5S007 whole entry S955A) above, with A955S, I2020T counted along it
T6 sequence (Q5S007 whole entry): as the sequence (Q5S007 whole entry S955A) above, with A955S counted along it
T2 sequence (Q5S007 whole entry S935A): as the sequence (Q5S007 whole entry S955A) above, with S935A, A955S counted along it
T4 sequence (Q5S007 whole entry S973A): as the sequence (Q5S007 whole entry S955A) above, with A955S, S973A counted along it

B1: LiCOR Dyelight labelled 14-3-3 protein (recombinant, His tagged BMH1) (other, UniProt P29311 1-267, looked up)
chain: MSTSREDSVYLAKLAEQAERYEEMVENMKTVASSGQELSVEERNLLSVAYKNVIGARRASWRIVSSIEQKEESKEKSEHQVELICSYRSKIETELTKISDDILSVLDSHLIPSATTGESKVFYYKMKGDYHRYLAEFSSGDAREKATNASLEAYKTASEIATTELPPTHPIRLGLALNFSVFYYEIQNSPDKACHLAKQAFDDAIAELDTLSEESYKDSTLIMQLLRDNLTLWTSDMSESGQAEDQQQQQQHQQQQPPAAAEGEAPK
modifications: fluorescent dye label (LiCOR Dyelight)
notes: also called fluorescent dye labeled recombinant 14-3-3; not shown: His tag
As for B1, the binding result in experiment [1] is “no binding”; in experiment [2], “no binding”; in experiment [3] it was “binds”; in experiment [4], “binds”; in experiment [5] it was “no binding”; in experiment [6], “binds”.

The values are drawn from US9187567 (PARKINSON S INSTITUTE, dated 2015).
